This data set concerns MSA-R2c (p57, major soluble antigen, IPT-domain construct) (Renibacterium salmoninarum). Put plainly: plate binding assay with immobilized protein, bound aptamer quantified by qPCR. The note with it: 20 mM Tris-HCl pH 7.4, room temperature, 1 h; wells coated with 50 uL of 2.5 uM protein, 1% BSA block; aptamer 0.0205-41 nM, heated at 95 C for 5 min; no added ….

In the case of “ATGATACGGCGACCACCTAACCATTTTCACTGTTTGTTTAATATATATAGTTTTATGGTATAGCGTCGTGTAGGGAAAGA [Aptamer-4]”, the equilibrium dissociation constant (Kd) came to 3 nM.

As a reminder, the Kd is the equilibrium constant for the complex coming apart. A lower Kd goes with tighter binding.
